Experimental data published in patent US20180362616A1 (NATIONAL INSTITUTE FOR BIOTECHNOLOGY IN THE NEGEV, published 2018).

How the values were obtained:
Factor XIa [1] = target: T1, Factor XIa (human, UniProt P03951 19-625); test: inhibition of FXIa cleavage of S-2366
T1 construct: also called FXIa

[2] = target: T2, human mesotrypsin (catalytically active) (human, UniProt P35030 81-304); test: inhibition of mesotrypsin cleavage of Z-GPR-pNA
T2 construct: mature; In the invasion assays it is the endogenous enzyme of PC3-M cells; also called active mesotrypsin; PRSS3 gene product
T2 sequence (looked up): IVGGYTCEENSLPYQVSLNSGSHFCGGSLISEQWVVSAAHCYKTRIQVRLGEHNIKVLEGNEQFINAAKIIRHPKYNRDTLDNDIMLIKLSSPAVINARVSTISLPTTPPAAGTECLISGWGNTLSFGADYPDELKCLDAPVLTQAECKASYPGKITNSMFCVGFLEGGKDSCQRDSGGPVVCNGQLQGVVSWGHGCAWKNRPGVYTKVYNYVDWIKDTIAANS

human Kallikrein-6 [3] = target: T3, human Kallikrein-6 (human, UniProt Q92876 22-244); test: SPR, APPI held on nickel chip by its His tag, hK6 as analyte, 25° C.
human Kallikrein-6 [4] = target: T3, human Kallikrein-6; test: inhibition of hK6 catalytic activity, slow tight inhibition mechanism
human anionic trypsin [5] = target: T4, human anionic trypsin (human, UniProt P07478 24-247); test: inhibition of anionic trypsin cleavage of Z-GPR-pNA; slow tight-binding fit
T4 construct: mature

human cationic trypsin [6] = target: T5, human cationic trypsin (human, UniProt P07477 24-247); test: inhibition of cationic trypsin cleavage of Z-GPR-pNA; slow tight-binding fit
T5 construct: mature

human Kallikrein-6 [7] = target: T3, human Kallikrein-6; test: inhibition of kallikrein-6 cleavage of BOC-Phe-Ser-Arg-AMC; slow tight-binding fit
[8] = target: T2, human mesotrypsin (catalytically active); test: inhibition of mesotrypsin cleavage of Z-GPR-pNA; competitive inhibition fit (Equation 1)
[9] = target: T2, human mesotrypsin (catalytically active); test: cell-based or functional assay
[10] = target: T2, human mesotrypsin (catalytically active); test: Ki of soluble variant against APPI-WT
[11] = target: T2, human mesotrypsin (catalytically active); test: inhibition constant of soluble variant; target taken as mesotrypsin
[12] = target: T2, human mesotrypsin (catalytically active); test: cell-based or functional assay; remark: listed apart in the source
[13] = target: T2, human mesotrypsin (catalytically active); test: Ki against that of APPI-WT, mesotrypsin inhibition
[14] = target: T2, human mesotrypsin (catalytically active); test: free energy change of association calculated from Ki of mesotrypsin inhibition (Equation 4), triple mutant cycle
[15] = target: T2, human mesotrypsin (catalytically active); test: Ki against that of APPI-WT, mesotrypsin inhibition (Equation 1)
[16] = target: T2, human mesotrypsin (catalytically active); test: Ki against that of APPI-WT, mesotrypsin inhibition (Equation 2)
[17] = target: T2, human mesotrypsin (catalytically active); test: inhibition of mesotrypsin cleavage of Z-GPR-pNA; slow tight-binding fit (Equation 2)
[18] = target: T2, human mesotrypsin (catalytically active); test: inhibition of mesotrypsin activity
human Kallikrein-6 [19] = target: T3, human Kallikrein-6; test: SPR, APPI held on nickel chip by its His tag, hK6 as analyte
Factor XIa [20] = target: T1, Factor XIa; test: Ki of APPI-WT over Ki of APPI-M17G/I18F/F34V, FXIa
[21] = target: T2, human mesotrypsin (catalytically active); test: Ki of APPI-WT over Ki of APPI-M17G/I18F/F34V, mesotrypsin
human Kallikrein-6 [22] = target: T3, human Kallikrein-6; test: Ki of APPI-WT over Ki of APPI-M17G/I18F/F34V, kallikrein-6
human anionic trypsin [23] = target: T4, human anionic trypsin; test: Ki of APPI-WT over Ki of APPI-M17G/I18F/F34V, anionic trypsin
human cationic trypsin [24] = target: T5, human cationic trypsin; test: Ki of APPI-WT over Ki of APPI-M17G/I18F/F34V, cationic trypsin
Factor XIa [25] = target: T1, Factor XIa; test: by the numbers: Ki (fold) for mesotrypsin over Ki (fold) for FXIa
[26] = target: T2, human mesotrypsin (catalytically active); test: inhibition of mesotrypsin cleavage of Z-GPR-pNA; slow tight-binding fit
human Kallikrein-6 [27] = target: T3, human Kallikrein-6; test: by the numbers: Ki (fold) for mesotrypsin over Ki (fold) for kallikrein-6
[28] = target: T2, human mesotrypsin (catalytically active); test: by the numbers: Ki (fold) for mesotrypsin over Ki (fold) for this protease
human anionic trypsin [29] = target: T4, human anionic trypsin; test: by the numbers: Ki (fold) for mesotrypsin over Ki (fold) for anionic trypsin
human cationic trypsin [30] = target: T5, human cationic trypsin; test: by the numbers: Ki (fold) for mesotrypsin over Ki (fold) for cationic trypsin

B1: APPI-WT (SEQ ID NO: 25), soluble, expressed in Pichia pastoris (other)
chain: EVCSEQAETGPCRAMISRWYFDVTEGKCAPFFYGGCGGNRNNFDTEEYCMAVCGSAI
notes: Secreted from P. pastoris GS115, purified by nickel IMAC and gel filtration; also called WT APPI; not shown: N-terminal FLAG tag with the SnaBI/EcoRI-coded residues, and the C-terminal AvrII-coded residues plus His6
Ki (Factor XIa [1]): 0.41 nM | Ki [2]: 131 nM | Kd (human Kallikrein-6 [3]): 7.91 nM | Ki (human Kallikrein-6 [4]): 2.24 nM | Ki (human anionic trypsin [5]): 0.00174 nM | Ki (human cationic trypsin [6]): 0.00627 nM | Ki (human Kallikrein-6 [7]): 2.23 nM | Ki [8]: 131 nM

B2: APPIM17G/I18F/K29L/F34V (SEQ ID NO: 10), soluble (designed binder)
chain: EVCSEQAETGPCRAGFSRWYFDVTEGLCAPFVYGGCGGNRNNFDTEEYCMAVCGSAI
notes: not shown: AvrII site residues and C-terminal HIS6 tag
Kcat (1/s), proteolytic resistance [9]: 0.000535 s⁻¹ | fold improvement in affinity relative to APPI-WT [10]: ~1000 fold | Ki [11]: 0.0891 nM

B3: APPI-I18F (SEQ ID NO: 19), soluble (designed binder)
chain: EVCSEQAETGPCRAMFSRWYFDVTEGKCAPFFYGGCGGNRNNFDTEEYCMAVCGSAI
notes: as for B2
Kcat (s^-1) of hydrolysis of APPI by mesotrypsin (HPLC time course) [12]: 0.0104 s⁻¹ | Ki (fold) [13]: 39.8 fold | Ki [8]: 3.29 nM | ΔΔGa, edge WT to I18F [14]: -9.46 kJ/mol

B4: APPI-M17G (SEQ ID NO: 18), soluble (designed binder)
chain: EVCSEQAETGPCRAGISRWYFDVTEGKCAPFFYGGCGGNRNNFDTEEYCMAVCGSAI
notes: as for B2
Kcat (s^-1) of hydrolysis of APPI by mesotrypsin (HPLC time course) [12]: 0.0156 s⁻¹ | Ki (fold) [15]: 39.8 fold | Ki (fold) [16]: 34.8 fold | Ki [17]: 3.69 nM | Ki [8]: 3.29 nM | ΔΔGa, edge WT to M17G [14]: -9.46 kJ/mol

B5: APPIM17C/I18F/F34C (SEQ ID NO: 12), soluble (designed binder)
chain: EVCSEQAETGPCRACFSRWYFDVTEGKCAPFCYGGCGGNRNNFDTEEYCMAVCGSAI
notes: as for B2
Kcat (1/s), proteolytic resistance [9]: 0.00038 s⁻¹ | fold improvement in affinity relative to APPI-WT [10]: ~2000 fold | Ki [11]: 0.0524 nM

B6: APPIM17L,I18F,S19F,F34V (SEQ ID NO: 13), soluble (designed binder)
chain: EVCSEQAETGPCRALFFRWYFDVTEGKCAPFVYGGCGGNRNNFDTEEYCMAVCGSAI
notes: also called APPI 3M G17L,S19F; not shown: His tag at the C-terminal
Ki [18]: 5.38 nM | fold improvement in binding compared to APPI WT (human Kallikrein-6 [19]): 22.5 fold | Kd (human Kallikrein-6 [3]): 0.351 nM

B7: APPI-I18F/F34V (SEQ ID NO: 20), soluble (designed binder)
chain: EVCSEQAETGPCRAMFSRWYFDVTEGKCAPFVYGGCGGNRNNFDTEEYCMAVCGSAI
notes: as for B2
Kcat (s^-1) of hydrolysis of APPI by mesotrypsin (HPLC time course) [12]: 0.00535 s⁻¹ | Ki (fold) [13]: 39.8 fold | Ki [17]: 3.3 nM | ΔΔGa, edge F34V to I18F/F34V [14]: -6.99 kJ/mol | ΔΔGa, edge I18F to I18F/F34V [14]: 0 kJ/mol

B8: APPIT11C/M17G/I18F/F34C (SEQ ID NO: 11), soluble (designed binder)
chain: EVCSEQAECGPCRAGFSRWYFDVTEGKCAPFCYGGCGGNRNNFDTEEYCMAVCGSAI
notes: as for B2
Kcat (1/s), proteolytic resistance [9]: 0.00521 s⁻¹ | Ki [11]: 149 nM

B9: APPI-M17G/I18F/F34V (SEQ ID NO: 8), soluble (designed binder)
chain: EVCSEQAETGPCRAGFSRWYFDVTEGKCAPFVYGGCGGNRNNFDTEEYCMAVCGSAI
notes: also called APPI 3M; APPI^3M; not shown: AvrII site residues and C-terminal HIS6 tag
Kcat (s^-1) of hydrolysis of APPI by mesotrypsin (HPLC time course) [12]: 0.000429 s⁻¹ | Ki (Factor XIa [1]): 98.4 nM | Ki (fold) [13]: 1460 fold | Ki (fold) (Factor XIa [20]): 0.00416 fold | Ki (fold) [21]: 1460 fold | Ki (fold) (human Kallikrein-6 [22]): 2.04 fold | Ki (fold) (human anionic trypsin [23]): 1.18 fold | Ki (fold) (human cationic trypsin [24]): 1.3 fold | Ki (human Kallikrein-6 [4]): 1.1 nM | specificity ratio (formula not given) (Factor XIa [25]): 350000 | Ki [26]: 0.0898 nM | specificity ratio (formula not given) (human Kallikrein-6 [27]): 715 | specificity ratio (formula not given) [28]: 1 | Ki (human anionic trypsin [5]): 0.00147 nM | specificity ratio (formula not given) (human anionic trypsin [29]): 1240 | Ki (human cationic trypsin [6]): 0.00496 nM | specificity ratio (formula not given) (human cationic trypsin [30]): 1120 | Ki (human Kallikrein-6 [7]): 1.09 nM | Ki [17]: 0.0898 nM

B10: APPIT11V/M17G/I18F/F34V (SEQ ID NO: 9), soluble (designed binder)
chain: EVCSEQAEVGPCRAGFSRWYFDVTEGKCAPFVYGGCGGNRNNFDTEEYCMAVCGSAI
notes: as for B2
Kcat (1/s), proteolytic resistance [9]: 0.000347 s⁻¹ | fold improvement in affinity relative to APPI-WT [10]: ~2000 fold | Ki [11]: 0.0499 nM

B11: APPI-M17G/F34V (SEQ ID NO: 21), soluble (designed binder)
chain: EVCSEQAETGPCRAGISRWYFDVTEGKCAPFVYGGCGGNRNNFDTEEYCMAVCGSAI
notes: as for B2
Kcat (s^-1) of hydrolysis of APPI by mesotrypsin (HPLC time course) [12]: 0.00371 s⁻¹ | Ki (fold) [13]: 93.6 fold | Ki [17]: 1.4 nM | ΔΔGa, edge F34V to M17G/F34V [14]: -9.2 kJ/mol | ΔΔGa, edge M17G to M17G/F34V [14]: -2.22 kJ/mol

B12: APPI-F34V (SEQ ID NO: 23), soluble (designed binder)
chain: EVCSEQAETGPCRAMISRWYFDVTEGKCAPFVYGGCGGNRNNFDTEEYCMAVCGSAI
notes: Variants were subcloned between EcoRI and AvrII of the APPI-WT pPIC9K template; not shown: AvrII site residues and C-terminal HIS6 tag
Kcat (s^-1) of hydrolysis of APPI by mesotrypsin (HPLC time course) [12]: 0.0161 s⁻¹ | Ki (fold) [13]: 2.6 fold | Ki [8]: 50.1 nM | ΔΔGa, edge WT to F34V [14]: -2.47 kJ/mol

B13: APPI-M17G/I18F (SEQ ID NO: 22), soluble (designed binder)
chain: EVCSEQAETGPCRAGFSRWYFDVTEGKCAPFFYGGCGGNRNNFDTEEYCMAVCGSAI
notes: as for B2
Kcat (s^-1) of hydrolysis of APPI by mesotrypsin (HPLC time course) [12]: 0.00291 s⁻¹ | Ki (fold) [13]: 290 fold | Ki [17]: 0.453 nM | ΔΔGa, edge I18F to M17G/I18F [14]: -5.1 kJ/mol | ΔΔGa, edge M17G to M17G/I18F [14]: -5.1 kJ/mol
